From the DeepSol protein solubility set

assay: soluble on expression in E. coli; label from the status in PepcDB or PDB records

| Sequence | soluble on expression in E. coli |
| --- | --- |
| MSYYHHHHHHDYDIPTTENLYFQGAMGSMNTRNTRSKQRAPCGVSSSVKPRLDLIEQAPNPVYDRHPACITLPERTCRHPLTDLEANEQLGRCEDSVKNRFDRVIPFLQVVAGIPLGLDHVTRVQELAQSSLGHTLPEELLKDNWISGHNLKGIFGYATAKALTAATEQFSRKIMSEKDDSASAIGFFLDCGFHAVDISPCADGRLKGLLPYILRLPLTAFTYRKAYAGSMFDIEDDLAQWEKNELRRYREGVPNTADQPTRYLKIAVYHFSTSDPTHSGCAAHGSNDRAALEAALTQLMKFREAVENAHCCGASIDILLIGVDTDTDAIRVHIPDSKGFLNPYRYVDNTVTYAQTLHLAPDEARVIIHEAILNANRSDGWAKGNGVASEGMRRFIGQLLINNLSQIDYVVNRHGGRYPPNDIGHAERYISVGDGFDEVQIRNLAYYAHLDTVEENAIDVDVGITIFTKLNLSRGLPIPIAIHYRYDPNVPGSRERTVVKARRIYNAIKERFSSLDEQNLLQFRLSVQAQDIGSPIEEVASA | soluble |
| MTAGFNFNNYAAGFCSATPALRGNEVNMDTLNLGNNESLVCGVFPNQDGTFTAMTYTKSKTFKTEAGARRWLARNTD | soluble |
| MTALTIKDLRYKHNQRMILQNVQLTLAPSKIVGLLGENGAGKTTLMRLITGSAKGQGSIVINGATTAVARKQQVSFTDHLTGFSAGMKLQQIAQFYQLVYPDFDAKRYQELVDFLELNQQQKLGELSKGTREKLIIALTLSRKVALYLLDEPFSGIDSMSRKKIINSIIKWTPAEATLLISDHYVTEIAPILDEIVVVKDQTIVVHQGADEIRDEHGMELEDYYESLYMGGVTDDK | not soluble |
| MTAPSLLIAGCGDIGSRLATRLLPHGWTVHGLRRTVSELPAGVHGVAGDLFDTRKPALWPAAALDYVVYCATPSKRDEAGYRMAYVEGLRNVLSWLEQTGQRPKRLIFVSSSGVYGQQNGEWVDEDSITEPANYTGTVMLEAEQLALNSGLPATAVRLTGIYGPGRSDLSNRVRQGHSVRIDPPVYANRIHADDAASLLEHLLQADQRGVALESCYLGVDDDPAALADVVAWIREYLGVTEWSEEVSVQRVGSKRCSNARARALGWTPMYPDYRAGYAALLG | not soluble |
| MTARVAGQAVGGQILVGEPVHDAVSDCADIRFGSYRLFSLDAAPGPDLD | not soluble |
| MTASDYEWQPDILGKDFQQLVIPLGADPISEGGEDDIFATLVRYAPADQPTPTSRPAVLFVHGMTDYFFQRHVAQWFHQHGFSVYALDLRKCGRSHRNNQSWHYISDISRYFEELDRAKSIIEELHPTIFPIGHSTGGLILAHWLDGLRQCETLHPTIPGAILNSPWLDMMTPATVTRALRPILTRAARRFPHASFGRSKEGTYGRSLHASRSGEWDYDISFKPLTGHLRKLGWLHAIDTAQSLVHNDAVDCGIPLLMLCSDHSSLRGKFSPRAQVTDTVLDVEQMKRWAPHLSEYVSVCTIRGAVHDVYLSQKPARLQALETSVRWMNRILSEHTI | not soluble |
| MTDCCPGFGSVAKYIAVSVREASFDVRSMAATSTCIFVLEVMGRHAGWIAAAGGLASDERHELALVILFPEQVFDPERFLRAVDEKVRSHGYCSVVVSEGIRGADGRFVAESGSRDVFGHARLGGVAPVIADLIKERLGYKYHWAVADYLQRAARHIALEHHHHHH | not soluble |
| MTDEKKKGVIFDIQRWSLHDGPGIRTNVFFKGCPLSCQWCSNPESQEFCREPALFGDKCIHCLSCVEHCPHGAIHTSDPWIRLDYEICRGRCSRGAEQENAFCCTKACYAQALTVMGEVMTADMVLEEVMRDEGIYRSSGGGVTMTGGEPLAQPEFLLELLTAAKERGLHTVMESSMFAEWDKIQACLPYLDVLFMDMKLLPEEKHVKYTGVSNQIILDNIRRAAAYARTHRLELAVRTPVIPGINDTSGDIAAMADWIKKHLPGVERYELLPYHRLGRGKYRNIGREYQLGDIVPPSKEKMKELEAVVSKLGLRRE | not soluble |
| MTDKKTTEKKETETAATFTEELTAVLEEIKEEPVKEKKKGEIVTIVNETDIQIGEREYRIVKNHRDAFDPERLGERFSEVLARYDYIVGDWGYEQLRLRGFFDTSNRRAAPDQRIDTLEDYLYEYCNFGCAYFVIERTGERKEKTTHRRRRHKKNNRSNAFVEEKSAPANKNSKPVIRTRKEENKKTTTPKQPSPKKSGKGFTIRQREELEHHHHHH | soluble |
| MTDKPTYEQTLRGNAIRAISACDLDEKVRLARETASRWFARALSVRSPLDPPLPERPGRPEKPELVPPRMLKKRSLNTEHGRIALMHALAHIELNAIDLALDIVARFAVKPIPRSFFDGWMKVADDEARHFTLLRNRLKSLGADYGDMPAHDGLWQSAHQTRNDLEARLAVVPLILEARGLDVTPSLLEKMIETGDHETAAILNIIYNDEKTHVAVGAKWFRFFCARNRIDPAARFRELVRANFRGELKPPFNELARAEAGLTPSFYRSLSPVSILEHHHHHH | not soluble |
| MTDNNKYRDVEIRAPRGNKLTAKSWLTEAPLRMLMNNLDPQVAENPKELVVYGGIGRAARNWECYDKIVETLTRLEDDETLLVQSGKPVGVFKTHSNAPRVLIANSNLVPHWANWEHFNELDAKGLAMYGQMTAGSWIYIGSQGIVQGTYETFVEAGRQHYGGSLKGKWVLTAGLGGMGGAQPLAATLAGACSLNIESQQSRIDFRLETRYVDEQATDLDDALVRIAKYTAEGKAISIALHGNAAEILPELVKRGVRPDMVTDQTSAHDPLNGYLPIGWTWEQYRDRAQTIPAAVVKAAKASMAVHVQAMLDFQKQGVPTFDYGNNIRQMAKEEGVANAFDFPGFVPAYIRPLFCRGVGPFRWAALSGEAEDIYKTDAKVKELIPDDAHLHRWLDMARERISFQGLPARICWVGLGLRAKLGLAFNEMVRSGELSAPVVIGRDHLDSGSVSSPNRETEAMRDGSDAVSDWPLLNALLNTAGGATWVSLHHGGGVGMGFSQHSGMVIVCDGTDEAAERIARVLTNDPGTGVMRHADAGYDIAIDCAKEQGLDLPMITG | soluble |
| MTDVEKPVDNSGTLIDDILSPLKGVNEDLNVLVLGGDKVNNNTDTMMLVNFKPSTSKVSILSIPRDTKVKINGKKAKINSAYPTGGGELAVQTVSELFGIDVKYYVFVDTSSFRKIIDILGGVDYYVPVDMDYDDPLQGLSIHIKKGQHHFDGAMAEKFMRFRQYNNGRVNEYYDGSDLKRIDAQQNFIRELVRQKLNIFYLTKVDDIASTIFSNIDTNLNMSEVLKLTGSVSKVQADSINMLKVPGKSVLDGAWYYVIDSQETDKIINEYFRTRYKLEHHHHHH | soluble |
| MTDVKTQNAISLKGSAQLVKEFFHFGLNSILYQRALYPSDSFKREKKYGLTLWVAHEKKLQAFMDPLLQQVEYWLAKRQLKRLVMVISEVKTKEVVERWQFDIHTENLAEEGYEIV | not soluble |
| MTDYLNVGKIVNTQGIKGEVRVISKTDFPEERYQKGAMLLLFQEKKAPIELVVKSHRKHKNFDILSFEGHPNINDVEKYRDGILKVAKDNLAELAEDEFYYHQIIGATVYDETGSELGKIKEILSPGANDVWVVQRPKKKDLLLPYIEGVVTKVDVENQRIDVDIPEGLIDDENLEHHHHHH | soluble |
| MTEDALNRIADALERMAPAPLRAPDFAVAPAFVWHVAPERLEPVRDVNRVDLDLLVGINRARDTLLDNTRRFAAGHGANNALLWGARGMGKSSLVKAVHGALQPEFPNLKLVELQREDLPSVARLLNHLRAAPERFILFCDDLSFSHDDQHYKSLKAVLDGGIEGRPENVVFYATSNRRHLMPRDMIENERSSAINPSEAVEEKVSLSDRFGLWLGFHPCDQDEYLAMIDGYCAAYGVSVAPDTLRAEAIEWQATRGARSGRVAWQFFTDLAGRQGIALRLEHHHHHH | soluble |
| MTEDEWEKQSSFVPVNADPLSPYTEKVKTLAAHRLDFHIRENLRLGVGELTMIGGKYPDLFAVSPFSIWHNNYNEGYTNSMASFDFSWVPKKGFEVHGEFVLDDLVGTTENESKPTAYAFNVGVRRALSTGSLKGVLGVEYALATKFVYNTFLPYLKFNNRIVYLTNLPSSRTIVDYPVGFAFGPDAKLLNVSFDLFKENVSLETDFFYLVKGPNTLYTEYPTAEEGETKTIFGASLRGKIGHVSFSLLFSGSEFLAGLGIEFGF | not soluble |
| MTEEFNESMINDIKEGDKVTGEVQEIEEKQVIVAVNGAKFNGIIPISQLSTHHIDNPSDAVKVGDEIGAYVTKVEYDEENETGAYILSKRQLETEKSYEFLQEQLDNNQTIEAKVTEVVKGGLVVDVGQRGFVPASLISTDFIEDFSDFEGQVLKLKVEELDPANNRVILSRKAVEALENAEKKDELLESLNEGDVIEGKVARLTNFGAFVDIGGVDGLVHVSELSHEHVKSPEDVVSIGETVNVKIKSVDKDSERISLSIKDTLPSPFESIKGEFNEGDVIEGTVVRLANFGAFVEIKPGVQGLVHISEISHSHIGSPSEALEPGQVVSVKVLGVDVENERISLSIKATLPNENVIESDSETTQSYLDNGSDDEDNPTLGDVFGDKLKDFKFLEHHHHHH | soluble |
| MTEEFNESMINDIKEGDKVTGEVQQVEDKQVVVHINGGKFNGIIPISQLSTHHIDSPSEVVKEGDEVEAYVTKVEFDEENETGAYILSRRQLETEKSYSYLQEKLDNNEIIEAKVTEVVKGGLVVDVGQRGFVPASLISTDFIEDFSVFDGQTIRIKVEELDPENNRVILSRKAVEQEENDAKKDQLLQSLNEGDVIHGKVARLTQFGAFIDIGGVDGLVHVSELSHEHVQTPEEVVSIGQDVKVKIKSIDRDTERISLSIKDTLPTPFENIKGQFHENDVIEGVVVRLANFGAFVEIAPGVQGLVHISEIAHKHIGTPGEVLEPGQQVNVKILGIDEENERVSLSIKATLPNEDVVESDPSTTKAYLENEEEDNPTIGDMIGDKLKNLKLLEHHHHHH | soluble |
| MTEFDNLTWLHGKPQGSGLLKANPEDFVVVEDLGFTPDGEGEHILLRILKNGCNTRFVADALAKFLKIHAREVSFAGQKDKHAVTEQWLCARVPGKEMPDFSAFQLEGCKVLEYARHKRKLRLGALKGNAFTLVLREISDRRDVETRLQAIRDGGVPNYFGAQRFGIGGSNLQGALRWAQSNAPVRDRNKRSFWLSAARSALFNQIVHQRLKKPDFNQVVDGDALQLAGRGSWFVATSEELPELQRRVDEKELMITASLPGSGEWGTQRAALAFEQDAIAQETVLQSLLLREKVEASRRAMLLYPQQLSWNWWDDVTVELRFWLPAGSFATSVVRELINTMGDYAHIAE | not soluble |
| MTEFTPFFDGSNQLNYLKFVILRFHGVSKRKICKMYNFAYFRILEVCEMAKKNDYRFTYKDYKFLKQYGVSNTFICKMYHISIEDLEFFEVMNR | not soluble |
| MTEKSIDLSVDIAGLRLSNPVIAASGTFGFGREFVDYVDLNKIGGISVKGLTLEKRQGNRPPRIAETPAGILNSVGLQNPGVRAFIENEIPFLRKYNTKIIANIAGNTIEDYCKMAELLSDADIDAIELNVSCPNVKKGCVAFGNSPAGISEITSKVKKYCKKPLIVKLTPNVTDIKEIAVAAEAAGADALSLINTILGMAIDIHRKRPILANNVGGLSGPAVKPIAVRMVYEVCSVVKIPVIGMGGISSGEDAVEFMLAGASAVMVGTANFINPAACIDVVEGIKNYLKMYNHGSVYEIIGKLQLN | not soluble |
| MTELEEIGININSIENTEQIISQLMDNYSDDVLHLVFSYVKNRTTAEDLTQEIFIKCYEKLDQFNNKSSIKTWLYRIAINHCKDYLGSWHYRKLNFSEKIWNYLPSKSKHVEEEIIAKDVANSLMSAVMDLPVKYREVVFLHYYEELSLANISKITGVNSNTLKTRLKHARELLKTKMKKEV | not soluble |
